Source: patent US4643988A, “Amphipathic peptides” (Research Corporation, priority 1984, dated 1987)

Experiment: Pore exclusion gradient gel electrophoresis of peptide/lipid complexes
Format: physicochemical
Conditions: range over complexes, ratio not stated
Method: Pore exclusion electrophoresis was performed on the resulting peptide/lipid complexes (FIG. 7), on 4-25% olyacrylamide gels using non-denaturing conditions for 24 to 36 hours. Gels were fixed and stained in the presence of 4% formaldehyde. DMPC is mixed with a trace of fluorescent marker (NBD). Different ratios of protein:lipid (1:1, 1:2.5, 1:5, 1:7.5) were incubated for 24-36 hours.

In the case of “Apo A-I: apolipoprotein A-I, major HDL apoprotein component, isolated from human serum”, the Stokes diameter is reported as 80-200 Å.
